This assay deals with endogenous p32 (ASF/SF2 splicing factor-associated protein) (human (endogenous in HEK293T)) (UniProt Q07021). The assay is described as follows: co-IP.

The text below walks through data of PMC9910500.

Sequence of UniProt Q07021 (Q07021 74-282): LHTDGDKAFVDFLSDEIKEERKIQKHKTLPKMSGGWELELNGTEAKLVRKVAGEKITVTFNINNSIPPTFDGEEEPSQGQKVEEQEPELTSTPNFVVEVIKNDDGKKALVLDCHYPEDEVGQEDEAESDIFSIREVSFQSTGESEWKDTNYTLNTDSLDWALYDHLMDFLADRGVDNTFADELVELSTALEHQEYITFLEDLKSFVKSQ

For RNA polymerase II (RNAPII) (complex), the increase of RNAPII co-precipitated with p32 in the presence of Tat was determined as 50%.
